# In the DeepSol protein solubility set:
# Experiment: soluble on expression in E. coli; label from the status in PepcDB or PDB records
row,Sequence,soluble on expression in E. coli
1,MGHHHHHHSHMPSLNLFPSVSDSGFWTGGTALRNPPSRPPYLSIAMTTLVSLATDLKYGSTLLGRIKTVLDASVAQLTVADVTTEDIVNFLNSLNGIDHELFSFIRTYPVFFVLHLCTLDRTQTYTSGQVIKTIKHLITTFREVLCEDMGADNDSIISNSNILKDCSWYLTKLETEQMSTSIPHLPKSCITFPCMEQVHHLVHNATLATLPNSWTSPLPSLNSVYVQWFVLSYKHKVFPDEVPSSNIQDLADKMTNIYKHLFVPHTSQLTGASIILARSLDILSQFTPLEKIPSNSPAVAFGDDELSNIPSNCHLMFGHLIESIYMGMTYACTLGAVEQFIREAFDVVLGVASEIKRTASLSDLPTVTKLVNIKRILIEHGLSETRCEEYAQALPKWQHREGIYPFEETLDHFHQKLSTLIKFCLEFYNTLMLVSPTSISHSYLKENNYLLQLDRKSAASQGQGPDDINLLEKVFTFVYPQVPGQDLQRIHDAIDSDIMRTLFFSWVNRNWGIVLITQNPLMEPSCEHQVSEERVAAYCKRMPVGDLSYEPAMVSHKMFYKYFIRHIVGPTIQGIFSRKTSRNRALFQIRWLLSFAITDTPQLQEIRRPLGMFYFELLDIINGTNKPSAMKNLLDHALDLKKKINKINQTFSIPQDLILYLFVLDTGASYINSVDYITAIIPKVEHLLLRGRNILRLGSILCHTKYNYHPLTHQFTILSSSGQILEVHLETLKSLISQVEKDHSQLLMEITDLEGELRGEYSTVLSLLQDLEAYKQHELGIEFDTEPWNQLKQSFSGILSRISSGLSLLSKGCSSCLRKRFHDLFSQEIITPTILKAASAGNVEIIKNLKEIPVNLMAPPTDTSMTQAGGNPTDEDLTMLYSTYPQIFSQNAARGEKHPPQLKKYSSTYDRIPLDVNWQIFTQQTYTAEHAECPYTIVKIHDIIKLLS,not soluble
2,MGHHHHHHSHMQEQVLYPLEAEVTMVTSFQDADPMGVIYHGNFFRYFEEARRVLMEKIQYGYRDMQDSGYMWPIIDTRVKYVKAIPFNHTIRITAQLTEWENRLRVDYVIYDAETNQRMCKAHTTQVAVSIEKQEMCFVSPAVFLDKVEQWHNHGSLN,soluble
3,MGHHHHHHSHMRPELLEYYIKVILDYNTAHNKVALSECYTVASVAEMPQNYRPHPQRFTYCSQVLGLHCYKKGIHYWEVELQKNNFCGVGICYGSMNRQGPESRLGRNSASWCVEWFNTKISAWHNNVEKTLPSTKATRVGVLLNCDHGFVIFFAVADKVHLMYKFRVDFTEALYPAFWVFSAGATLSICSPK,not soluble
4,MGHHHHHHSHMRRAELAGLKTMAWVPAESAVEELMPRLLPVEPCDLTEGFDPSVPPRTPQEYLRRVQIEAAQCPDVVVAQIDPKKLKRKQSVNISLSGCQPAPEGYSPTLQWQQQQVAQFSTVRQNVNKHRSHWKSQQLDSNVTMPKSEDEEGWKKFCLGEKLCADGAVGPATNESPGIDYVQIGFPPLLSIVSRMNQATVTSVLEYLSNWFGERDFTPELGRWLYALLACLEKPLLPEAHSLIRQLARRCSEVRLLVDSKDDERVPALNLLICLVSRYFDQRDLADEPS,not soluble
5,MGHHHHHHSHMSLKGKRIGFGFTGSHCTYEEVMPHLEKLIAEGAEVRPVVSYTVQSTNTRFGEGAEWIKKIEEITGFKAINSIVGAEPLGPKIPLDCMVIAPLTGNSMSKFANAMTDSPVLMAAKATLRNGKPVVLAVSTNDALGLNGVNLMRLMATKNIYFVPFGQDAPEKKPNSMVARMELLEDTVLEALQGKQLQPVVVEKFRYMN,soluble
6,MGHHHHHHSHMTDDKDVLRDVWFGRIPTCFTLYQDEITEREAEPYYLLLPRVSYLTLVTDKVKKHFQKVMRQEDISEIWFEYEGTPLKWHYPIGLLFDLLASSSALPWNITVHFKSFPEKDLLHCPSKDAIEAHFMSCMKEADALKHKSQVINEMQKKDHKQLWMGLQNDRFDQFWAINRKLMEYPAEENGFRYIPFRIYQTTTERPFIQKLFRPVAADGQLHTLGDLLKEVCPSAIDPEDGEKKNQVMIHGIEPMLETPLQWLSEHLSYPDNFLHISIIPQPTD,not soluble
7,MGHHHHHHSHMTPGVVHASPPQSQRVPRQAPCEWAIRNIGQKPKEPNCHNCGTHIGLRSKTLRGTPNYLPIRQDTHPPSVIFCLAGVGVPGLPV,not soluble
8,MGHHHHHHSHMTSGPGGRSAAAGGRKENHQWYVCNREKLCESLQAVFVQSYLDQGTQIFLNNSIEKSGWLFIQLYHSFVSSVFSLFMSRTSINGLLGRGSMFVFSPDQFQRLLKINPDWKTHRLLDLGAGDGEVTKIMSPHFEEIYATELSETMIWQLQKKKYRVLGINEWQNTGFQYDVISCLNLLDRCDQPLTLLKDIRSVLEPTRGRVILALVLPFHPYVENGGKWEKPSEILEIKGQNWEEQVNSLPEVFRKAGFVIEAFTRLPYLCEGDMYNDYYVLDDAVFVLKPV,not soluble
9,MGHHHHHHSHMVETVSTKNTKNWHAPVVPAAWEAEAGESLEPWRWRLQWAGIASLHSSLGDRARLRLKKKKKKRKGHFPIQKSRKYVPFLKGICSSTPVGISRQVGQETEKRNKTQRQSIEKERGAQGTGALSLRGPAGALVSEFPQYLLIIIFTILARGV,not soluble
10,MGHHHHHHSHMVKPLSPLNIQKLARHHGPRLWSQLLGRLRQVGHVGSGVRDQPGQHGETPISTKNTKISQASWPTPVVPATREAEVEGSLKSWGQGCSELLSHHCTPAWATVRPCLKKKRKMKQKLTCLLPPN,not soluble
11,MGHHHHHHSHMVTMEELREMDCSVLKRLMNRDENGGGAGGSGSHGTLGLPSGGKCLLLDCRPFLAHSAGYILGSVNVRCNTIVRRRAKGSVSLEQILPAEEEVRARLRSGLYSAVIVYDERSPRAESLREDSTVSLVVQALRRNAERTDICLLKGGYERFSSEYPEFCSKTKALAAIP,not soluble
12,MGHHHHHHSHNLGPRLTPLLQEEDSHQRLLMGLMVSELKDHFLRHLQGVEKKKIEQMVLDYISKLLDLICHIVETNWRKHNLHSWVLHFNSRGSAAEFAVFHIMTRILEATNSLFLPLPPGFHTLHTILGVQCLPLHNLLHCIDSGVLLLTETAVIRLMKDLDNTEKNEKLKFSIIVRLPPLIGQKICRLWDHPMSSNIISRNHVTRLLQNYKKQPRNSMINKSSFSVEFLPLNYFIEILTDIESSNQALYPFEGHDNVDAEFVEEAALKHTAMLLGL,not soluble
13,MGHHHHHHSHNTALVLCPFKDSGCKHRCPKLAMARHVEESVKPHLAMMCALVSRQRQELQELRRELEELSVGSDGVLIWKIGSYGRRLQEAKAKPNLECFSPAFYTHKYGYKLQVSAFLNGNGSGEGTHLSLYIRVLPGAFDNLLEWPFARRVTFSLLDQSDPGLAKPQHVTETFHPDPNWKNFQKPGTWRGSLDESSLGFGYPKFISHQDIRKRNYVRDDAVFIRAAVELPRKILS,not soluble
14,MGHHHHHHSHPPERQINLSNIRAGNLARRAAATQPDAKDTPDEPWAFPAREFLRKKLIGKEVCFTIENKTPQGREYGMIYLGKDTNGENIAESLVAEGLATRREGMRANNPE,not soluble
15,MGHHHHHHSHRKRPLLAPLCNGLINSYEDKSNDFVCPICFDMIEEAYMTKCGHSFCYKCIHQSLEDNNRCPKCNYVVDNIDHLYPNFLVNELILKQKQRFEEKRFKLDHSVSSTNGHRWQIFQDWLGTDQDNLDLANVNLMLELLVQKKKQLEAESHAAQLQILMEFLKVARRNKREQLEQIQKELSVLEEDIKRVEEMSGLYSPVSED,not soluble
16,MGHHHHHHSHRNLDSRTFITIGDRNFEVEADDLVTISELGRGAYGVVEKVRHAQSGTIMAVKRIRATVNSQEQKRLLMDLDINMRTVDCFYTVTFYGALFREGDVWICMELMDTSLDKFYRKVLDKNMTIPEDILGEIAVSIVRALEHLHSKLSVIHRDVKPSNVLINKEGHVKMCDFGISGYLVDSVAKTMDAGCKPYMAPERINPELNQKGYNVKSDVWSLGITMIEMAILRFPYESWGTPFQQLKQVVEEPSPQLPADRFSPEFVDFTAQCLRKNPAERMSYLELMEHPFF,soluble
17,MGHHHHHHSHRRQHPLPLLLLRHLRPQAHREPPQVYTSSQPLRVGYYETDNYTMPSPAMRRAVLETKQSLEAAGHTLVPFLPSNIPHALETLSTGGLFSDGGHTFLQNFKGDFVDPCLGDLVSILKLPQWLKGLLAFLVKPLLPRLSAFLSNMKSRCTAKP,not soluble
18,MGHHHHHHSHVEIIQKVVVKQILTEASKQELIEYYTEQKRQIEQECDQLHFEQKKMERKSKFQPERVADYFTHELDIRREKKKLIQFQMEQLEVLELGSEIREREMETIIDVQVGDKWDKSIFDKTIVVKDGIIVEIR,soluble
